Ends that are not written are not given here.
target: GST–BIR3 fusion protein (XIAP BIR3 domain); test: FMAT bead-based fluorescence competition assay

| Binder | IC50 |
| --- | --- |
| ATPF-NH2 [ATPF (compound 17)] | 200 nM |
| ALPF-NH2 [ALPF (compound 15)] | 180 nM |
| AVPIAQ-NH2 [Smac 6-mer peptide AVPIAQ (compound 2)] | 270 nM |
| AIAY-NH2 [Grim 4-mer peptide AIAY (compound 8)] | 340 nM |

The remaining binders from weak to strong by IC50, led by results:

| IC50 | Binder |
| --- | --- |
| 1000 nM | SVPF-NH2 [SVPF (compound 10)] |
| 390 nM | AVPIAQK-NH2 [Smac 7-mer peptide AVPIAQK (compound 1)] |
| 300 nM | AVPIA-NH2 [Smac 5-mer peptide AVPIA (compound 3)] |
| 80 nM | AIPF-NH2 [AIPF (compound 16)] |
